# In patent publication US20220112288A1 (published 2022):
# Residue numbers refer to the chain shown, from its start.
# B1: 75110_12C19A (antibody, IgG1, V domains shown)
# VH: EVQLVESGGGLVQPGGSLRLSCAASGFTFSSYWMSWVRQAPGKGLEWVANIKEDGSDKYYVDSVKGRFTISRDNAKNSLYLQMNSLRAEDTAVHYCVREGGQWLALDYWGQGTLVTVSS
# VL: DIQMTQSPSSVSGSVGDRVTITCRASQGISSWLAWYQQKPGKAPKLLIYGASSLQSGVPSRFSGSGSGTDFTLTISSLQPEDFVTYYCQQANSFPWTFGQGTKVEIK
# notes: Tested as non-clonal AlivaMab Mouse Kappa hybridoma supernatant: human variable domains and human kappa, mouse Fc
# B2: 75110_12K21A (antibody, V domains shown)
# VH: QVQLQQWGAGLLKPSETLSLTCAVSGGSFSGYYWSWIRQPPGKGLEWIGEINHSGSTNCNPSLKSRVTISVDTSNNQFSLKLSSVTAADTAVYYCARVLNYFDYWGQGTLVTVSS
# VL: DIQMTQSPSSVSASVGDRVTITCRASPDIANWLAWYQQKPGKAPELLIYAASSLQSGVPSRFSGSGSGTDFTLTISSLQPEDFATYFCQQANSFPLTFGGGTKVESK
# notes: as for B1
# B3: 75110_13C13A (antibody, IgG1, V domains shown)
# VH: B2 VH with N75K, V92M, Y101F
# VL: B2 VL with S7T, D28G, A30S
# notes: as for B1
# B4: 75110_13P21A (antibody, IgG1, V domains shown)
# VH: B2 VH
# VL: B2 VL
# notes: as for B1
# B5: 75110_13P22A (antibody, IgG1, V domains shown)
# VH: B2 VH with V24A, S25Y, P40S, H53Q, S56N, C59Y, V71A, N75K, Y101W, T109I
# VL: B1 VL with G13A, S31D, P40S, K45D, Y49F, G50A, V84A, W96Y, V104L
# notes: as for B1
# B6: 75110_04F22A (antibody, V domains shown)
# VH: EVQLVESGGGLVQPGGSLRLSCAASGFTFSSYDIHWVRQATGKGLEWVSTIGTAGDTYYPGSVKGRFTISRENAKNSLYLQMNSLRAGDTAVYYCARGGYYYYGMDVWGQGTTVTVSS
# VL: EIVLTQSPGTLSLSPGERATLSCRASQSVYSSYLAWYQQKPGQAPRLLIYGASSRATGIPDRFSGSGSGTDFTLTISRLEPEDFAVYYCQQFGTSPFTFGPGTKVDIK
# notes: as for B1
# B7: 75110_01G11A (antibody, IgG1, V domains shown)
# VH: B6 VH with I34M, K75R, Y79F, Y100D
# VL: B6 VL with S14F, S28N, V29T, S54N, F92H
# notes: as for B1
# B8: 75110_01J17A (antibody, IgG1, V domains shown)
# VH: B6 VH with I34M, A40G, G55D, K75E, Y100D
# VL: B6 VL with T5A, S31I, S77T, T94S, I107F
# notes: as for B1
# B9: 75110_01K10A (antibody, V domains shown)
# VH: B6 VH with G10A, S30R, S31N, I34M, Y100D
# VL: B6 VL with G9D, V29L, Y30S, S32V, S66T, F92Y, T94S
# notes: as for B1
# B10: 75110_01N04A (antibody, IgG1, V domains shown)
# VH: B6 VH with S31N, I34M, Y100D, Y101F, M105L
# VL: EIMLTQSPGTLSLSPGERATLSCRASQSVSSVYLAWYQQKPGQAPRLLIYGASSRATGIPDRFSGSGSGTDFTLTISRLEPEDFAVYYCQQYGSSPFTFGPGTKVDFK
# notes: as for B1
# B11: 75110_04P06A (antibody, IgG1, V domains shown)
# VH: B6 VH with S31N, I34M, Y100D
# VL: B6 VL with G9D, V29L, Y30S, S32V, S77N, A85V, F92Y, T94S
# notes: as for B1
# B12: 75110_05K11A (antibody, IgG1, V domains shown)
# VH: B6 VH with I34M, A40P, G61A, Y100F
# VL: B6 VL with A19V, Y30S, S31N, S32T, A85V, F92H, T94S
# notes: as for B1
# B13: 75110_07E04A (antibody, IgG1, V domains shown)
# VH: B6 VH with A24V, I34M, N76K, S77F
# VL: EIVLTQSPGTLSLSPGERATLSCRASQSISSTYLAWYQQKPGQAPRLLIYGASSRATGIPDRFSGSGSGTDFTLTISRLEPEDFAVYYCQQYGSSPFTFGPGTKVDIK
# notes: as for B1
# What was measured:
# [1] = target: T1, human CD4 on cells (SKW3 cells; human PBMCs) (human, UniProt P01730 26-458); assay: FACS confirmation, supernatant on human PBMCs, anti-mouse Fc 647, CD4+ gate
# T1 construct: whole, on cells; SKW3 CD4 knockout cells served as the negative cell line; also called hCD4
# [2] = target: T1, human CD4 on cells (SKW3 cells; human …); assay: FACS confirmation, supernatant on SKW3 WT cells, anti-mouse Fc 647; background gMFI 3300
# [3] = target: T1, human CD4 on cells (SKW3 cells; human …); assay: FACS confirmation, supernatant on SKW3 WT cells, anti-human kappa FITC; background gMFI 2500
# [4] = target: T1, human CD4 on cells (SKW3 cells; human …); assay: FACS confirmation, supernatant on human PBMCs, anti-mouse Fc 647, CD4+ percent of viable cells
# [5] = target: T1, human CD4 on cells (SKW3 cells; human …); assay: FACS primary screen, non-clonal hybridoma supernatant, SKW3 vs SKW3 CD4 knockout cells, anti-mouse Fc A647
# [6] = target: T1, human CD4 on cells (SKW3 cells; human …); assay: FACS primary screen, non-clonal hybridoma supernatant, SKW3 vs SKW3 CD4 knockout cells, anti-human kappa FITC
# huCD4-HIS = target: T2, huCD4-HIS (human, UniProt P01730 26-390, limits assumed); assay: ELISA binning, competitor Ibalizumab; 100 ng/mL huCD4-HIS, anti-HIS HRP detection; background 45, max binding 3000000
# T2 construct: the ELISA binning is not described in the text of this stretch
# [7] = target: T1, human CD4 on cells (SKW3 cells; human …); assay: FACS binning on SKW3 cells pre-incubated with supernatant; competitor OKT4-A488, its signal read; background 2163, max binding 8200
# [8] = target: T1, human CD4 on cells (SKW3 cells; human …); assay: FACS binning on SKW3 cells pre-incubated with supernatant; competitor RPA-T4-PE-Dazzle 594, its signal read; background 783, max binding 15000
# [9] = target: T1, human CD4 on cells (SKW3 cells; human …); assay: FACS binning on SKW3 cells pre-incubated with supernatant; competitor OKT4a read with anti-human A647 secondary; background 5000, max binding 35000
Binder,"PBMCs, anti-mFc 647 CD4+ gate - RL1 Binding [1]","SKW3 WT anti-mFc 647, gMFI [2]","SKW3 WT anti-hu Kappa FITC, gMFI [3]","PBMCs, anti-mFc 647 CD4+ Percent Bound of Viable [4]",SKW3 WT vs KO anti-mFc-647 [5],SKW3 WT vs KO anti-hKappa-FITC [6],Ibalizumab ELISA binning signal (huCD4-HIS),SKW3 FACS Binning OKT4 A488 [7],SKW3 FACS Binning RPA-T4-PE-Dazzle 594 [8],SKW3 FACS Binning OKT4a anti-hu A647 Secondary [9]
B1,341000,29300 gMFI,6850 gMFI,31%,7.2 fold,2.3 fold,1.51e+06,9580,11900,7140
B2,335000,25000 gMFI,5620 gMFI,30%,6.6 fold,2.8 fold,1.41e+06,10000,10900,8240
B3,99600,23900 gMFI,7240 gMFI,6%,6.8 fold,3.1 fold,1.17e+06,9760,20800,5500
B4,274000,30900 gMFI,7580 gMFI,31%,5.8 fold,2.4 fold,678000,9420,11900,6870
B5,215000,18200 gMFI,5910 gMFI,27%,6.4 fold,2.8 fold,1.16e+06,9370,19000,6220
B6,286000,26900 gMFI,5580 gMFI,32%,3.6 fold,1.8 fold,748000,9940,2290,40200
B7,244000,19200 gMFI,5000 gMFI,30%,3.4 fold,2 fold,495000,10100,2160,30100
B8,280000,31600 gMFI,5780 gMFI,32%,4.3 fold,2.1 fold,755000,10000,1950,37700
B9,283000,24300 gMFI,5940 gMFI,30%,4.6 fold,2.2 fold,890000,10800,1510,30000
B10,210000,28000 gMFI,5640 gMFI,33%,3.7 fold,1.9 fold,1.04e+06,9720,2240,38100
B11,292000,24500 gMFI,5600 gMFI,31%,3.9 fold,1.6 fold,1.22e+06,10100,2190,37400
B12,267000,35900 gMFI,6700 gMFI,31%,4 fold,1.8 fold,1.18e+06,9730,2190,37600
B13,206000,22000 gMFI,6360 gMFI,30%,2.9 fold,1.8 fold,1.73e+06,9940,2420,31300
